Legend:
[1] = molecular target: T1, cynomolgus monkey PD1 antigen (cynomolgus monkey, UniProt B0LAJ3 25-170); assay: ELISA, coated cynomolgus PD1
T1 construct: also called cynomolgus PD1

murine PD1 antigen = molecular target: T2, murine PD1 antigen (murine, UniProt Q02242 25-167, limits assumed); assay: ELISA, coated murine PD1
T2 sequence (looked up): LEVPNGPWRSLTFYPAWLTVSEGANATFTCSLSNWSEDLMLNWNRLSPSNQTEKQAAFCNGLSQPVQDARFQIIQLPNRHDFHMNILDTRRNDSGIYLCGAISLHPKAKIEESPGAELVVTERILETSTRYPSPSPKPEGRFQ

T1 sequence (B0LAJ3 entry or part of it limits assumed, form in doubt): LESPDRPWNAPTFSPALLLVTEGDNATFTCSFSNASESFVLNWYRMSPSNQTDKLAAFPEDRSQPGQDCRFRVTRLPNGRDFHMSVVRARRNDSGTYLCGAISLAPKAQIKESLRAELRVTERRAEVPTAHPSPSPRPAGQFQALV

B1: IgG1_WT nivolumab (antibody, V domains shown)
VH: QVQLVESGGGVVQPGRSLRLDCKASGITFSNSGMHWVRQAPGKGLEWVAVIWYDGSKRYYADSVKGRFTISRDNSKNTLFLQMNSLRAEDTAVYYCATNDDYWGQGTLVTVSS
VL: EIVLTQSPATLSLSPGERATLSCRASQSVSSYLAWYQQKPGQAPRLLIYDASNRATGIPARFSGSGSGTDFTLTISSLEPEDFAVYYCQQSSNWPRTFGQGTKVEIK
OD 450 nm at 0.2 µg/ml [1]: 2.39 OD 450 nm
OD 450 nm at 0.2 µg/ml (murine PD1 antigen): 0.305 OD 450 nm
